# ± gives the standard deviation of the averaged measurements.
# Tested on: ATP
# Test: switch fluorescence ratio, 500 uM ATP over buffer (Cy3 cluster intensity, sum of 5 cycles each) (fold (ratio)); higher = stronger signal-on switching upon ATP binding; sequences stand for … in TCGTCGGCAGCGTCAGATGTGTATAAGAGACAGTTTTTTTTTTTTTTTTTTTTTTTTT…TC
# Conditions: aptamer strand: ATP DNA aptamer (quencher-CACCTGGGGGAGTATTGCGGAGGAAGG + anchor), 100 nM annealed; ATP concentration: 500 uM
# How it was run: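 Cy3-labelled switching-strand clusters on a modified Illumina MiSeq flow-cell were annealed to 100 nM quencher-labelled ATP aptamer and imaged first in selection buffer, then after 15 min with 500 uM ATP at 22 °C. NaOH stripping and re-annealing separated each of five buffer/ATP cycles, and clusters outside 100-1000 RFU were excluded. The fluorescence ratio sums target-cycle Cy3 intensity over buffer-cycle Cy3 intensity per cluster and averages it per switch-domain sequence.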
# 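Further: ATP exposure 15 min at 22 °C before imaging.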
row,Sequence,switch fluorescence ratio
1,TAGGGGTTGT,1.02 ± 0.028
2,TAGGGTAAGT,0.9905 ± 0.0089
3,TAGGGTATAT,0.986 ± 0.015
4,TAGGGTCGGT,1 ± 0.041
5,TAGGGTGAGT,1.02 ± 0.035
6,TAGGGTGTTG,1.01 ± 0.021
7,TAGGGTTTGT,0.989 ± 0.031
8,TAGGTACCAG,0.984 ± 0.025
9,TAGGTAGCTT,1.02 ± 0.021
10,TAGGTAGGGA,0.993 ± 0.018
11,TAGGTATGTG,1.03 ± 0.049
12,TAGGTCAGAA,0.989 ± 0.025
13,TAGGTCATTG,0.995 ± 0.025
14,TAGGTCGGTG,0.993 ± 0.011
15,TAGGTCTAGG,1 ± 0.023
16,TAGGTGCGGT,0.989 ± 0.015
17,TAGGTGCTTT,1.079 ± 0.0059
18,TAGGTGGCGG,0.9906 ± 0.0071
19,TAGGTGGTTT,0.989 ± 0.026
20,TAGGTGTAGG,1.01 ± 0.028
21,TAGGTGTGTG,0.984 ± 0.024
22,TAGGTTAAAA,0.9786 ± 0.0041
23,TAGGTTAAGG,1 ± 0.034
24,TAGGTTACCC,1.04 ± 0.046
25,TAGGTTATTA,0.9988 ± 0.0097

row,Sequence,switch fluorescence ratio
1,TAGGTTGCTT,1.02 ± 0.021
2,TAGGTTGGGT,0.992 ± 0.0089
3,TAGTAAAAAC,0.9938 ± 0.0061
4,TAGTAACATA,1.006 ± 0.0036
5,TAGTAATATT,1.11 ± 0.12
6,TAGTAATGTT,0.982 ± 0.025
7,TAGTAGACTG,1.01 ± 0.05
8,TAGTAGAGT,0.9637 ± 0.0076
9,TAGTAGATTC,1.005 ± 0.0054
10,TAGTAGCTGT,1.04 ± 0.089
11,TAGTAGGGTT,0.986 ± 0.021
12,TAGTAGGTAC,1.04 ± 0.025
13,TAGTAGTCGG,0.963 ± 0.036
14,TAGTAGTTAT,0.9858 ± 0.0052
15,TAGTATTCTG,0.986 ± 0.021
16,TAGTATTTGC,1.14 ± 0.13
17,TAGTCAGTCG,1.08 ± 0.11
18,TAGTCATTTG,0.962 ± 0.0097
19,TAGTCCGTAA,2.06 ± 0.035
20,TAGTCGGGTT,0.9613 ± 0.0059
21,TAGTCGTTTC,1.02 ± 0.035
22,TAGTCTGGT,0.999 ± 0.016
23,TAGTCTTTTT,1.03 ± 0.027
24,TAGTGACACG,1.03 ± 0.045
25,TAGTGAGGGA,0.992 ± 0.013

row,Sequence,switch fluorescence ratio
1,TAGTGCCGGT,0.993 ± 0.016
2,TAGTGCGTCG,0.942 ± 0.063
3,TAGTGCTTGG,0.9827 ± 0.0087
4,TAGTGGGTTT,1.01 ± 0.021
5,TAGTGGTTAG,0.991 ± 0.025
6,TAGTGTAGGT,1.03 ± 0.02
7,TAGTGTATTA,1.01 ± 0.018
8,TAGTGTCGGA,0.9914 ± 0.0035
9,TAGTTAATAT,1 ± 0.019
10,TAGTTAGTTT,1.02 ± 0.029
11,TAGTTCATGG,0.991 ± 0.019
12,TAGTTCGCTT,1.003 ± 0.0067
13,TAGTTGAATT,0.998 ± 0.014
14,TAGTTGACCG,1.12 ± 0.11
15,TAGTTGACTG,1.04 ± 0.072
16,TAGTTGATTC,1.01 ± 0.067
17,TAGTTGCGGC,1.01 ± 0.041
18,TAGTTGGGGG,1 ± 0.028
19,TAGTTGGTAC,0.9925 ± 0.0083
20,TAGTTGGTCG,1.02 ± 0.049
21,TAGTTGGTTG,0.974 ± 0.027
22,TAGTTGTTGC,0.977 ± 0.021
23,TAGTTTATTT,1 ± 0.015
24,TAGTTTCCCA,0.971 ± 0.024
25,TAGTTTCGAT,0.977 ± 0.019

row,Sequence,switch fluorescence ratio
1,TAGTTTGATG,0.986 ± 0.017
2,TAGTTTTATG,0.959 ± 0.015
3,TAGTTTTTTA,1.02 ± 0.015
4,TAGTTTTTTT,0.986 ± 0.022
5,TATAAAAAAA,1.02 ± 0.051
6,TATAAAACCC,1.1 ± 0.045
7,TATAAAAGGA,1 ± 0.019
8,TATAAAGGG,0.956 ± 0.022
9,TATAAAGGTG,1.11 ± 0.14
10,TATAACACTT,1.05 ± 0.024
11,TATAACGGAG,1.01 ± 0.014
12,TATAACGTTA,0.993 ± 0.015
13,TATAAGAGAA,0.972 ± 0.031
14,TATAAGATTA,1.015 ± 0.0027
15,TATAAGCTAG,1.03 ± 0.017
16,TATAAGGAGG,0.9935 ± 0.0033
17,TATAATACGG,1.02 ± 0.02
18,TATAATAGAA,0.983 ± 0.027
19,TATAATCCAG,0.984 ± 0.024
20,TATAATCGTG,0.988 ± 0.021
21,TATAATTGCG,0.977 ± 0.036
22,TATAATTTCG,1.003 ± 0.0024
23,TATACAAATT,0.989 ± 0.043
24,TATACAGCGA,1.0822 ± 0.00025
25,TATACATTCA,1.07 ± 0.019

row,Sequence,switch fluorescence ratio
1,TATACATTGG,0.98862 ± 5.5e-05
2,TATACCGGTA,1.022 ± 0.0067
3,TATACGAAAT,1.49 ± 0.58
4,TATACGATCT,0.999 ± 0.03
5,TATACGGCAC,2.04 ± 0.14
6,TATACGGCAT,1.119 ± 0.0049
7,TATACGGTTT,1.03 ± 0.083
8,TATACTCAGG,1.05 ± 0.029
9,TATAGACTTT,1.02 ± 0.019
10,TATAGATGAC,0.989 ± 0.017
11,TATAGATGTG,1.013 ± 0.0024
12,TATAGATTTT,1.003 ± 0.0078
13,TATAGCAGTT,1.01 ± 0.013
14,TATAGCTTTT,0.9869 ± 0.0031
15,TATAGGCTCA,0.976 ± 0.033
16,TATAGGCTTT,0.97 ± 0.024
17,TATAGGGCC,1 ± 0.017
18,TATAGGTATG,1.01 ± 0.012
19,TATAGGTCGA,1.03 ± 0.011
20,TATAGGTGAG,1.01 ± 0.03
21,TATAGTATTT,0.984 ± 0.015
22,TATAGTGCTC,0.986 ± 0.054
23,TATAGTGTAA,1.01 ± 0.048
24,TATAGTTGTG,0.965 ± 0.025
25,TATATAAGAA,1.01 ± 0.033

row,Sequence,switch fluorescence ratio
1,TATATATCAA,1.003 ± 0.005
2,TATATCGGAC,1 ± 0.014
3,TATATCTCCG,1.12 ± 0.015
4,TATATGAGTT,0.963 ± 0.0099
5,TATATGGCAT,1.05 ± 0.085
6,TATATGGCGG,0.9719 ± 0.0074
7,TATATGGGGT,1 ± 0.042
8,TATATGTGAT,0.987 ± 0.017
9,TATATGTGGG,0.9705 ± 0.0077
10,TATATTTCTA,0.999 ± 0.035
11,TATATTTTCA,1.01 ± 0.068
12,TATCAACTTG,1.02 ± 0.037
13,TATCACATTG,0.992 ± 0.039
14,TATCAGGTAG,1.001 ± 0.0052
15,TATCATATTA,1 ± 0.037
16,TATCATGCGC,1.02 ± 0.054
17,TATCATGGGA,0.9982 ± 0.0087
18,TATCATGGTG,1.05 ± 0.058
19,TATCCAGGGA,1.026 ± 0.0046
20,TATCCCAGGC,1.31 ± 0.032
21,TATCCTTTTT,1.03 ± 0.057
22,TATCGAGGGT,0.9698 ± 0.0094
23,TATCGAGTCG,0.997 ± 0.034
24,TATCGCCCTC,1.07 ± 0.011
25,TATCGGAGAG,0.9835 ± 0.0016

row,Sequence,switch fluorescence ratio
1,TATCGGCTGT,1.01 ± 0.011
2,TATCGGGGTA,1.002 ± 0.0047
3,TATCGGTAGC,1.017 ± 0.0025
4,TATCGTAGAG,1.011 ± 0.0072
5,TATCGTGGAG,1.04 ± 0.042
6,TATCGTTTTT,0.987 ± 0.046
7,TATCTAGGTC,0.954 ± 0.086
8,TATCTGGGCA,1.06 ± 0.087
9,TATCTGGTAG,1 ± 0.025
10,TATCTTACGA,1.02 ± 0.041
11,TATCTTTCGG,0.997 ± 0.021
12,TATGAAAAGT,0.9926 ± 0.0072
13,TATGAACTGC,1.04 ± 0.041
14,TATGAGAAGC,1 ± 0.017
15,TATGAGCGCT,1.03 ± 0.054
16,TATGAGGCCA,1.04 ± 0.023
17,TATGAGGGGG,1.02 ± 0.04
18,TATGAGGGTG,1.08 ± 0.13
19,TATGAGGGTT,1 ± 0.038
20,TATGAGTTGC,1.03 ± 0.011
21,TATGATAACT,1.031 ± 0.0077
22,TATGATCTAG,0.995 ± 0.014
23,TATGATGTAA,1.02 ± 0.049
24,TATGATTCAG,0.98 ± 0.012
25,TATGATTTAT,0.995 ± 0.062

row,Sequence,switch fluorescence ratio
1,TATGCAATCA,1.03 ± 0.02
2,TATGCATGGA,1.009 ± 0.0082
3,TATGCCCAGA,1.03 ± 0.041
4,TATGCCTCTT,1.01 ± 0.031
5,TATGCGCAGA,1.01 ± 0.03
6,TATGCTGGAT,1.02 ± 0.059
7,TATGGAGATA,0.999 ± 0.013
8,TATGGAGGTT,0.969 ± 0.0074
9,TATGGCATCG,0.99 ± 0.014
10,TATGGCTCTA,0.9731 ± 0.00019
11,TATGGGACTC,1.032 ± 0.0025
12,TATGGGCCGG,1.07 ± 0.018
13,TATGGGGGGC,0.983 ± 0.047
14,TATGGGGGTA,1.01 ± 0.029
15,TATGGGGGTC,1.02 ± 0.015
16,TATGGTAGC,0.989 ± 0.048
17,TATGGTCTTA,0.987 ± 0.021
18,TATGGTCTTT,0.979 ± 0.019
19,TATGGTGAAG,1 ± 0.024
20,TATGGTGCCT,1.02 ± 0.082
21,TATGGTGGGG,0.986 ± 0.034
22,TATGGTGTAG,1 ± 0.043
23,TATGGTTATG,1.008 ± 0.0072
24,TATGTACTAT,1.08 ± 0.029
25,TATGTAGAAG,1 ± 0.027

# Source: the supplement of paper PMC10126150
